Data published in paper doi:10.1101/2020.12.01.406983 (bioRxiv, 2020).

Molecular target: canine parvovirus (CPV) capsid (Canine parvovirus type 2, strain CPV-d …, UniProt P17455)
Experiment: cryo-EM structure

Sequence of canine parvovirus (CPV) capsid (P17455 whole entry, looked up): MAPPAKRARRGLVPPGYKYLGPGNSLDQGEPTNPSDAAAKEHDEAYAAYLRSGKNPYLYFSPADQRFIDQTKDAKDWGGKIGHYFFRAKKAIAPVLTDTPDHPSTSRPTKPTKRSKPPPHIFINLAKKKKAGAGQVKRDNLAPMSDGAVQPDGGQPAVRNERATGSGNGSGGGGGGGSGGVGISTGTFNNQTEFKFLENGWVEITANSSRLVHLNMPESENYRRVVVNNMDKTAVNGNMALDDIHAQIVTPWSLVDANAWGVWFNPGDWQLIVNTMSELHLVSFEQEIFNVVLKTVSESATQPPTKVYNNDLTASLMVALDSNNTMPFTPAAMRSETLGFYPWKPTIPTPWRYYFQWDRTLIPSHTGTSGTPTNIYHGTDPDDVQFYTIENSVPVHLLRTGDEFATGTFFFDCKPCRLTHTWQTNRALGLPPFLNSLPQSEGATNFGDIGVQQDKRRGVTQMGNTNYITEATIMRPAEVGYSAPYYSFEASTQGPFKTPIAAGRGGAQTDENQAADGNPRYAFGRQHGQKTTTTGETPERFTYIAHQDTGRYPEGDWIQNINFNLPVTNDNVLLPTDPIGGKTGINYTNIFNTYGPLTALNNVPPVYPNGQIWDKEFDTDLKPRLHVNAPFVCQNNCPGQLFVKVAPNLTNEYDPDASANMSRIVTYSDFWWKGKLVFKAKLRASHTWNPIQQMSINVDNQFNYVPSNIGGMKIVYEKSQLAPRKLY

B1: Fab of MAb14 (Fab 14) (Fab, V domains shown)
VH: AVHLQGTELVKPGASAGVKLSCKASGYTFTNYDMNWVRQRPEQGLEWIGWIFPGDGSTRYNEKFKGKATLTTDKSSSTAYQLNRLTSEDSAVYFCARRGSHGSYSFAYWGQGTLVTVSG
VL: DIVMTQSHKFMSTSVGDRVSITCKASQDVNTALAWYQQIPGQSPKLLIYSASNRYTGVPDRFTASGSGTDFTFTISSVQAEDLALYYCQQHYTTPWTFGGGTKLEIK
- stoichiometry N: ~60 Fab 14 molecules per capsid
